± gives the standard deviation of the averaged measurements.
tested on: ATP; experiment: switch fluorescence ratio, 500 uM ATP over buffer (Cy3 cluster intensity, sum of 5 cycles each) (fold (ratio)); higher = stronger signal-on switching upon ATP binding; sequences stand for … in TCGTCGGCAGCGTCAGATGTGTATAAGAGACAGTTTTTTTTTTTTTTTTTTTTTTTTT…TC; settings: aptamer strand: ATP DNA aptamer (quencher-CACCTGGGGGAGTATTGCGGAGGAAGG + anchor), 100 nM annealed; ATP concentration: 500 uM
Method in brief: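 Per cluster, summed Cy3 intensity from the target cycles was divided by that from the buffer cycles to give the fluorescence ratio, then averaged per switch-domain sequence. Clusters outside 100-1000 RFU were excluded. The Cy3-labelled switching-strand clusters, on a modified Illumina MiSeq flow-cell, were annealed to 100 nM quencher-labelled ATP aptamer and imaged in selection buffer, then after 15 min with 500 uM ATP at 22 °C, for five cycles with NaOH stripping and re-annealing between them.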
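Further: ATP exposure 15 min at 22 °C before imaging.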

Row | Sequence | switch fluorescence ratio
1 | CAGGTAGATC | 1.04 ± 0.05
2 | CAGGTATTCA | 1.0177 ± 8.3e-05
3 | CAGGTATTGA | 1 ± 0.03
4 | CAGGTCCGCT | 1.12 ± 0.036
5 | CAGGTCGTT | 1.01 ± 0.054
6 | CAGGTCTGTG | 1.025 ± 0.0022
7 | CAGGTTAAGG | 1.01 ± 0.018
8 | CAGGTTGAAG | 0.9631 ± 0.0069
9 | CAGGTTGTTT | 1.23 ± 0.45
10 | CAGGTTTAGG | 1.01 ± 0.021
11 | CAGGTTTGGT | 0.984 ± 0.021
12 | CAGGTTTTCT | 0.9968 ± 0.0018
13 | CAGTAAAGTG | 0.998 ± 0.017
14 | CAGTAATAGG | 1.07 ± 0.0075
15 | CAGTAATGCG | 0.99757 ± 0.00094
16 | CAGTACCGGA | 0.9935 ± 0.0044
17 | CAGTAGAGGT | 0.9766 ± 0.0042
18 | CAGTAGGCCA | 1.01 ± 0.032
19 | CAGTAGGTGG | 1 ± 0.028
20 | CAGTAGTCGA | 1.03 ± 0.014
21 | CAGTATTCGG | 1 ± 0.015
22 | CAGTCAAGGG | 1.01 ± 0.013
23 | CAGTCACTTG | 1.01 ± 0.029
24 | CAGTCCCCTT | 1.33 ± 0.44
25 | CAGTCGGGCT | 0.974 ± 0.02
26 | CAGTCGGGTT | 1.03 ± 0.079

Row | Sequence | switch fluorescence ratio
27 | CAGTCTTATT | 0.9712 ± 0.0087
28 | CAGTCTTTTA | 0.957 ± 0.035
29 | CAGTGACAGT | 1.028 ± 0.0014
30 | CAGTGACGGT | 1.03 ± 0.021
31 | CAGTGATACG | 1.16 ± 0.036
32 | CAGTGCGCCT | 0.996 ± 0.036
33 | CAGTGCGGAG | 0.999 ± 0.016
34 | CAGTGCGGCA | 1.038 ± 0.0027
35 | CAGTGGAGCC | 1.01 ± 0.034
36 | CAGTGGGGGG | 1.01 ± 0.039
37 | CAGTGGGGTG | 0.993 ± 0.03
38 | CAGTGTAGTC | 1.02 ± 0.057
39 | CAGTGTATTT | 1.01 ± 0.038
40 | CAGTGTGTAT | 0.989 ± 0.013
41 | CAGTGTTATG | 0.97 ± 0.014
42 | CAGTGTTGGC | 1 ± 0.016
43 | CAGTTCGGAA | 1.07 ± 0.027
44 | CAGTTGCGCA | 0.996 ± 0.034
45 | CAGTTGGGTA | 0.98 ± 0.028
46 | CAGTTTAGTT | 0.987 ± 0.072
47 | CAGTTTCGGG | 1.004 ± 0.01
48 | CAGTTTGTTC | 0.987 ± 0.022
49 | CAGTTTTATT | 0.992 ± 0.022
50 | CATAAACGCG | 1.003 ± 0.0088
51 | CATAAAGGAG | 1.01 ± 0.016
52 | CATAACGCCT | 1.09 ± 0.027

Row | Sequence | switch fluorescence ratio
53 | CATAACGGTT | 0.98 ± 0.025
54 | CATAACTTGG | 1.011 ± 0.002
55 | CATAAGATGC | 1.03 ± 0.027
56 | CATAAGGGTT | 1.13 ± 0.17
57 | CATAAGGTCG | 1.03 ± 0.083
58 | CATAATAACC | 1.03 ± 0.018
59 | CATAATATTG | 0.991 ± 0.011
60 | CATACAGGGG | 1.44 ± 0.067
61 | CATACCCAAA | 1.05 ± 0.039
62 | CATACGGGGG | 1.03 ± 0.025
63 | CATACGTGCG | 1 ± 0.042
64 | CATAGGGGCC | 0.9643 ± 0.0074
65 | CATAGGTAAG | 0.9837 ± 0.0022
66 | CATAGTTTGC | 0.9979 ± 0.0053
67 | CATATAATTG | 0.976 ± 0.014
68 | CATATAGAGG | 1.01 ± 0.054
69 | CATATATTTT | 1.04 ± 0.058
70 | CATATCGGAA | 1.187 ± 0.0077
71 | CATATGGTAT | 1.02 ± 0.037
72 | CATATTATGA | 0.987 ± 0.012
73 | CATATTCTTT | 0.979 ± 0.016
74 | CATATTGCTT | 0.993 ± 0.028
75 | CATATTGGTC | 1 ± 0.062
76 | CATATTTGGG | 0.981 ± 0.081
77 | CATATTTTGT | 1.0216 ± 0.00042
78 | CATATTTTTG | 0.996 ± 0.013

Row | Sequence | switch fluorescence ratio
79 | CATCAATGTG | 0.997 ± 0.052
80 | CATCAGGATG | 1.01 ± 0.031
81 | CATCAGGGTT | 0.974 ± 0.013
82 | CATCAGTGGT | 1.03 ± 0.032
83 | CATCATGGTC | 1.03 ± 0.054
84 | CATCATTGGG | 0.993 ± 0.016
85 | CATCCGGGGT | 2.04 ± 0.57
86 | CATCCTGAAT | 1.08 ± 0.027
87 | CATCGGCTCA | 1.12 ± 0.067
88 | CATCGGGGTA | 1.02 ± 0.029
89 | CATCGTGGGT | 0.975 ± 0.027
90 | CATCTCATAT | 1.02 ± 0.028
91 | CATCTGTG | 1.03 ± 0.016
92 | CATCTTATGA | 0.99 ± 0.0043
93 | CATCTTGAAT | 1 ± 0.046
94 | CATGATGAGA | 0.969 ± 0.035
95 | CATGATTATT | 0.986 ± 0.024
96 | CATGCACACT | 1.11 ± 0.053
97 | CATGCACCGG | 0.986 ± 0.05
98 | CATGCAGATA | 1.006 ± 0.0094
99 | CATGCCAGAT | 0.994 ± 0.028
100 | CATGCGTTTT | 1.04 ± 0.043
101 | CATGCTACGG | 1.01 ± 0.016
102 | CATGCTAGAG | 0.99 ± 0.025
103 | CATGCTGGGG | 0.9941 ± 0.0022
104 | CATGGAAGGC | 0.957 ± 0.03

Row | Sequence | switch fluorescence ratio
105 | CATGGCCTTA | 0.972 ± 0.0097
106 | CATGGGAGGG | 1.01 ± 0.029
107 | CATGGGAGGT | 0.9711 ± 0.0067
108 | CATGGGCGGG | 0.983 ± 0.022
109 | CATGGGGAGT | 0.969 ± 0.024
110 | CATGGGGGGG | 0.982 ± 0.043
111 | CATGGGGGTG | 1 ± 0.021
112 | CATGGGTTAT | 0.981 ± 0.05
113 | CATGTAGGCA | 0.99 ± 0.046
114 | CATGTCGACT | 0.988 ± 0.046
115 | CATGTCGGCA | 1 ± 0.019
116 | CATGTGACCA | 0.988 ± 0.038
117 | CATGTGATGG | 1.06 ± 0.044
118 | CATGTGATTT | 0.992 ± 0.023
119 | CATGTGGGGA | 1.021 ± 0.004
120 | CATGTGGGTA | 0.981 ± 0.053
121 | CATGTGGTGG | 0.998 ± 0.039
122 | CATGTGTTTT | 0.9744 ± 0.0041
123 | CATGTTGGAT | 0.964 ± 0.029
124 | CATGTTTCTA | 0.995 ± 0.02
125 | CATTAAAATT | 0.994 ± 0.028
126 | CATTAACAGG | 1.03 ± 0.021
127 | CATTAAGGCT | 1.01 ± 0.071
128 | CATTAGATGC | 1.06 ± 0.056
129 | CATTAGCGAT | 1.5 ± 0.091
130 | CATTAGGGGG | 1.04 ± 0.037

Row | Sequence | switch fluorescence ratio
131 | CATTAGTCTC | 1.02 ± 0.053
132 | CATTAGTTGG | 1.006 ± 0.0052
133 | CATTATCTGG | 1.01 ± 0.072
134 | CATTATGCGG | 1 ± 0.025
135 | CATTATTGGC | 1.06 ± 0.025
136 | CATTCATGAT | 0.9858 ± 0.0086
137 | CATTCGCTGA | 1.92 ± 0.19
138 | CATTCTTTTT | 1.02 ± 0.049
139 | CATTGACATA | 1.07 ± 0.034
140 | CATTGAGTTG | 0.973 ± 0.018
141 | CATTGCAGAT | 0.981 ± 0.037
142 | CATTGCAGTT | 1.01 ± 0.026
143 | CATTGCCCGT | 0.989 ± 0.017
144 | CATTGCGATT | 1.13 ± 0.14
145 | CATTGGGAGA | 0.984 ± 0.011
146 | CATTGGGGCG | 0.926 ± 0.019
147 | CATTGGTCGC | 0.997 ± 0.035
148 | CATTGGTGGC | 0.992 ± 0.1
149 | CATTGGTGGG | 0.977 ± 0.028
150 | CATTGTTAGG | 1.01 ± 0.004
151 | CATTTAATTC | 1.04 ± 0.014
152 | CATTTAGGGA | 1.01 ± 0.029
153 | CATTTATAAA | 0.992 ± 0.011

Reference: the supplement of paper PMC10126150
